# B1: GST fusion protein containing apoB48R amino acid 629-1088 (other)
# chain: QEDAADGEQREEEETAGGQTLAAEAEGDRESELSEVPEAGGEGLTTQDAGCGTEEGEASVSENQELDGSTGADAGPCPSLGEAYARETEDEEAEADRTSRRGWRLQAVAVGLPDREDAQTGSVAAGIMGGDVVPHISAAGAGEALEGALGQGWDSKEKEEAAAGEHAGGQEFGLEGSAEEEVTGRGSQVEAFESREGGPWGGRVEAEESAGAEDSCGLDPAGSQTARAEGMGAMVEAGGLLEKWTLLEEEAVGWQEREQREDSEGRCGDYHPEGEAPRLLDAEGLMVTGGRRAEAKETEPESLEHVRGQEEQPTHQAPAEAAPESVGEAETAEAMGSARGGAANSWSEAPLPGSLLDVSVPRSRVHLSRSSSQRRSRPSFRRTPAWEQQEEPPAPNPPEEELSAPEQRPLQLEEPLEPSPLRHDGTPVPARRRPLGHGFGLAHPGMMQELQARLGRPKPQ
# notes: not shown: glutathione-S-transferase of the pGEX-5X-3 vector (Pharmacia)
# B2: glutathione-S-transferase (GST)-fusion protein containing apoB48R amino acid 223 to 710 (other)
# chain: EMEQGVREADAGETEEPGAEGAGKGEEVVVVEKACESTRAWGTWGPGAEPEDWGILGREEARTTPGREEARAILDGEEARTISGGEEAETASGGEEAETASGGEEAGTASGGEEAGISSGGEAGTASGGEEAGTASGGDEAWTTSGKEEADLLGVRQTQYGAVPGERLLEATGKVWVLEEEGDEEREAEVSPFPKQAQVLGTERTEEAAESQTAGREAVGGQEAGESFEGQVDLRGKEAEMRQDLGIRADRAKMEELVQAEEAQEERGSSRDPVAELPSDGEAEGTADLEATPEARPEEELTGEESEAAQTSCGLLGVEWGGLTHSVTKGQGPELMGGAQTPTKQPEEREAGEVELMGVLALSKEEQERSLEAGPRHAGSVKPEASEAFPGAWENRTRKDMERGNTQEDAADGEQREEEETAGGQTLAAEAEGDRESELSEVPEAGGEGLTTQDAGCGTEEGEASVSENQELDGSTGADAGPCPSLGE
# notes: Migrates as a dimer on SDS-PAGE; also called apoB48R-GST fusion protein (aa 223-710); not shown: glutathione-S-transferase of the pGEX-5X-3 vector (Pharmacia)
# B3: GST fusion protein containing apoB48R amino acid 714-917 (other)
# chain: RETEDEEAEADRTSRRGWRLQAVAVGLPDREDAQTGSVAAGIMGGDVVPHISAAGAGEALEGALGQGWDSKEKEEAAAGEHAGGQEFGLEGSAEEEVTGRGSQVEAFESREGGPWGGRVEAEESAGAEDSCGLDPAGSQTARAEGMGAMVEAGGLLEKWTLLEEEAVGWQEREQREDSEGRCGDYHPEGEAPRLLDAEGLMVTG
# notes: as for B1
# B4: MBP200 (membrane binding protein of ~200 kDa; human monocyte-macrophage apoB48 receptor, apoB48R) (receptor)
# chain: MDFLRLYLPGLHQALRGALDSLGTFVSYLLGDAVPTVEREAQAAEELGVVAVGKTGKIVEEEAQEDLEGLRGSQNEGAGRLRGPGDDRRHEVGSSAVEQTWGWGDGSSHGSQAERQDSGAGETAKAARCQEPSAHLEARKKSKAGSGACQDRSGQAQERQESHEQEVNREERLRSWEQEEEEEEVRAREPGMARGAESEWTWHGETEGKAGAVGPKAAGDNREMEQGVREADAGETEEPGAEGAGKGEEVVVVEKACESTRAWGTWGPGAEPEDWGILGREEARTTPGREEARAILDGEEARTISGGEEAETASGGEEAETASGGEEAGTASGGEEAGISSGGEAGTASGGEEAGTASGGDEAWTTSGKEEADLLGVRQTQYGAVPGERLLEATGKVWVLEEEGDEEREAEVSPFPKQAQVLGTERTEEAAESQTAGREAVGGQEAGESFEGQVDLRGKEAEMRQDLGIRADRAKMEELVQAEEAQEERGSSRDPVAELPSDGEAEGTADLEATPEARPEEELTGEESEAAQTSCGLLGVEWGGLTHSVTKGQGPELMGGAQTPTKQPEEREAGEVELMGVLALSKEEQERSLEAGPRHAGSVKPEASEAFPGAWENRTRKDMERGNTQEDAADGEQREEEETAGGQTLAAEAEGDRESELSEVPEAGGEGLTTQDAGCGTEEGEASVSENQELDGSTGADAGPCPSLGEAYARETEDEEAEADRTSRRGWRLQAVAVGLPDREDAQTGSVAAGIMGGDVVPHISAAGAGEALEGALGQGWDSKEKEEAAAGEHAGGQEFGLEGSAEEEVTGRGSQVEAFESREGGPWGGRVEAEESAGAEDSCGLDPAGSQTARAEGMGAMVEAGGLLEKWTLLEEEAVGWQEREQREDSEGRCGDYHPEGEAPRLLDAEGLMVTGGRRAEAKETEPESLEHVRGQEEQPTHQAPAEAAPESVGEAETAEAMGSARGGAANSWSEAPLPGSLLDVSVPRSRVHLSRSSSQRRSRPSFRRTPAWEQQEEPPAPNPPEEELSAPEQRPLQLEEPLEPSPLRHDGTPVPARRRPLGHGFGLAHPGMMQELQARLGRPKPQ
# notes: Native protein in Triton X-114 aqueous-phase extracts of THP-1 monocytes, run on non-reducing SDS-PAGE and blotted to nitrocellulose; Apparent Mr ~200 kD against ~114.8 kD deduced; also called TGRLP receptor; TGRLP/ApoB receptor
# B5: human receptor-associated protein (RAP) (other, UniProt P30533 35-357, looked up)
# chain: YSREKNQPKPSPKRESGEEFRMEKLNQLWEKAQRLHLPPVRLAELHADLKIQERDELAWKKLKLDGLDEDGEKEARLIRNLNVILAKYGLDGKKDARQVTSNSLSGTQEDGLDDPRLEKLWHKAKTSGKFSGEELDKLWREFLHHKEKVHEYNVLLETLSRTEEIHENVISPSDLSDIKGSVLHSRHTELKEKLRSINQGLDRLRRVSHQGYSTEAEFEEPRVIDLWDLAQSANLTDKELEAFREELKHFEAKIEKHNHYQKQLEIAHEKLRHAESVGDGERVSRSREKHALLEGRTKELGYTVKKHLQDLSGRISRARHNEL
# Columns and labels:
# [1] = target: the molecule itself; assay: SDS-PAGE of the purified GST fusion protein
# [2] = target: the molecule itself; assay: SDS-PAGE of the purified fusion protein
# [3] = target: T1, intermediate density lipoprotein (human, UniProt P04114 28-4563); assay: ligand blot; the binding is of lower affinity
# T1 construct: Lipoprotein particle; also called IDL
# [4] = target: T2, normal VLDL Sf100-400 from a subject with normal plasma TG levels (human, UniProt P04114 28-4563); assay: ligand blot; the binding is of lower affinity
# T2 construct: Lipoprotein particle; also called N-V1; normal very low density lipoprotein
# [5] = target: T3, low density lipoprotein (LDL) (human, UniProt P04114 28-4563); assay: ligand blot; lower affinity than HTG TGRLP and chylomicrons
# T3 construct: Lipoprotein particle
# [6] = target: B4; assay: ligand blot
# Procedure: The ligand blotting assay was performed essentially as described (Gianturco et al., 1988, 1994; Ramprasad et al., 1995) with minor modifications. Aliquots of the detergent extracts were electrophoresed on 5% polyacrylamide gels containing 0.1% SDS (Laemmli, 1970) under non-reducing conditions in a Bio-Rad minigel apparatus and electrotransferred to nitrocellulose. After blocking for 1 hour with 5% Carnation nonfat dry milk in ligand buffer (50 mM Tris-HCl (pH 8), 90 mM NaCl and 2 mM CaCl₂), the blots were rinsed with 0.5% milk in ligand buffer before incubation with lipoproteins in ligand buffer containing 0.05% milk (Gianturco et al., 1988).
# For competitive ligand blots, TGRLP were biotinylated as described (O'Shannessy et al., 1984) and dialyzed extensively before use. […] After extensive washing, bound lipoprotein was detected by incubation with streptavidin linked to alkaline phosphatase, followed by substrates BCIP and NBT (Bio-Rad Laboratories, CA). In some experiments without antibodies as potential competitors, native, unlabeled TGRLP were used as the ligand, and bound TGRLP was detected with anti-apoB followed by alkaline phosphatase-linked secondary antibody. […]
# T3 sequence (P04114 28-4563 limits assumed): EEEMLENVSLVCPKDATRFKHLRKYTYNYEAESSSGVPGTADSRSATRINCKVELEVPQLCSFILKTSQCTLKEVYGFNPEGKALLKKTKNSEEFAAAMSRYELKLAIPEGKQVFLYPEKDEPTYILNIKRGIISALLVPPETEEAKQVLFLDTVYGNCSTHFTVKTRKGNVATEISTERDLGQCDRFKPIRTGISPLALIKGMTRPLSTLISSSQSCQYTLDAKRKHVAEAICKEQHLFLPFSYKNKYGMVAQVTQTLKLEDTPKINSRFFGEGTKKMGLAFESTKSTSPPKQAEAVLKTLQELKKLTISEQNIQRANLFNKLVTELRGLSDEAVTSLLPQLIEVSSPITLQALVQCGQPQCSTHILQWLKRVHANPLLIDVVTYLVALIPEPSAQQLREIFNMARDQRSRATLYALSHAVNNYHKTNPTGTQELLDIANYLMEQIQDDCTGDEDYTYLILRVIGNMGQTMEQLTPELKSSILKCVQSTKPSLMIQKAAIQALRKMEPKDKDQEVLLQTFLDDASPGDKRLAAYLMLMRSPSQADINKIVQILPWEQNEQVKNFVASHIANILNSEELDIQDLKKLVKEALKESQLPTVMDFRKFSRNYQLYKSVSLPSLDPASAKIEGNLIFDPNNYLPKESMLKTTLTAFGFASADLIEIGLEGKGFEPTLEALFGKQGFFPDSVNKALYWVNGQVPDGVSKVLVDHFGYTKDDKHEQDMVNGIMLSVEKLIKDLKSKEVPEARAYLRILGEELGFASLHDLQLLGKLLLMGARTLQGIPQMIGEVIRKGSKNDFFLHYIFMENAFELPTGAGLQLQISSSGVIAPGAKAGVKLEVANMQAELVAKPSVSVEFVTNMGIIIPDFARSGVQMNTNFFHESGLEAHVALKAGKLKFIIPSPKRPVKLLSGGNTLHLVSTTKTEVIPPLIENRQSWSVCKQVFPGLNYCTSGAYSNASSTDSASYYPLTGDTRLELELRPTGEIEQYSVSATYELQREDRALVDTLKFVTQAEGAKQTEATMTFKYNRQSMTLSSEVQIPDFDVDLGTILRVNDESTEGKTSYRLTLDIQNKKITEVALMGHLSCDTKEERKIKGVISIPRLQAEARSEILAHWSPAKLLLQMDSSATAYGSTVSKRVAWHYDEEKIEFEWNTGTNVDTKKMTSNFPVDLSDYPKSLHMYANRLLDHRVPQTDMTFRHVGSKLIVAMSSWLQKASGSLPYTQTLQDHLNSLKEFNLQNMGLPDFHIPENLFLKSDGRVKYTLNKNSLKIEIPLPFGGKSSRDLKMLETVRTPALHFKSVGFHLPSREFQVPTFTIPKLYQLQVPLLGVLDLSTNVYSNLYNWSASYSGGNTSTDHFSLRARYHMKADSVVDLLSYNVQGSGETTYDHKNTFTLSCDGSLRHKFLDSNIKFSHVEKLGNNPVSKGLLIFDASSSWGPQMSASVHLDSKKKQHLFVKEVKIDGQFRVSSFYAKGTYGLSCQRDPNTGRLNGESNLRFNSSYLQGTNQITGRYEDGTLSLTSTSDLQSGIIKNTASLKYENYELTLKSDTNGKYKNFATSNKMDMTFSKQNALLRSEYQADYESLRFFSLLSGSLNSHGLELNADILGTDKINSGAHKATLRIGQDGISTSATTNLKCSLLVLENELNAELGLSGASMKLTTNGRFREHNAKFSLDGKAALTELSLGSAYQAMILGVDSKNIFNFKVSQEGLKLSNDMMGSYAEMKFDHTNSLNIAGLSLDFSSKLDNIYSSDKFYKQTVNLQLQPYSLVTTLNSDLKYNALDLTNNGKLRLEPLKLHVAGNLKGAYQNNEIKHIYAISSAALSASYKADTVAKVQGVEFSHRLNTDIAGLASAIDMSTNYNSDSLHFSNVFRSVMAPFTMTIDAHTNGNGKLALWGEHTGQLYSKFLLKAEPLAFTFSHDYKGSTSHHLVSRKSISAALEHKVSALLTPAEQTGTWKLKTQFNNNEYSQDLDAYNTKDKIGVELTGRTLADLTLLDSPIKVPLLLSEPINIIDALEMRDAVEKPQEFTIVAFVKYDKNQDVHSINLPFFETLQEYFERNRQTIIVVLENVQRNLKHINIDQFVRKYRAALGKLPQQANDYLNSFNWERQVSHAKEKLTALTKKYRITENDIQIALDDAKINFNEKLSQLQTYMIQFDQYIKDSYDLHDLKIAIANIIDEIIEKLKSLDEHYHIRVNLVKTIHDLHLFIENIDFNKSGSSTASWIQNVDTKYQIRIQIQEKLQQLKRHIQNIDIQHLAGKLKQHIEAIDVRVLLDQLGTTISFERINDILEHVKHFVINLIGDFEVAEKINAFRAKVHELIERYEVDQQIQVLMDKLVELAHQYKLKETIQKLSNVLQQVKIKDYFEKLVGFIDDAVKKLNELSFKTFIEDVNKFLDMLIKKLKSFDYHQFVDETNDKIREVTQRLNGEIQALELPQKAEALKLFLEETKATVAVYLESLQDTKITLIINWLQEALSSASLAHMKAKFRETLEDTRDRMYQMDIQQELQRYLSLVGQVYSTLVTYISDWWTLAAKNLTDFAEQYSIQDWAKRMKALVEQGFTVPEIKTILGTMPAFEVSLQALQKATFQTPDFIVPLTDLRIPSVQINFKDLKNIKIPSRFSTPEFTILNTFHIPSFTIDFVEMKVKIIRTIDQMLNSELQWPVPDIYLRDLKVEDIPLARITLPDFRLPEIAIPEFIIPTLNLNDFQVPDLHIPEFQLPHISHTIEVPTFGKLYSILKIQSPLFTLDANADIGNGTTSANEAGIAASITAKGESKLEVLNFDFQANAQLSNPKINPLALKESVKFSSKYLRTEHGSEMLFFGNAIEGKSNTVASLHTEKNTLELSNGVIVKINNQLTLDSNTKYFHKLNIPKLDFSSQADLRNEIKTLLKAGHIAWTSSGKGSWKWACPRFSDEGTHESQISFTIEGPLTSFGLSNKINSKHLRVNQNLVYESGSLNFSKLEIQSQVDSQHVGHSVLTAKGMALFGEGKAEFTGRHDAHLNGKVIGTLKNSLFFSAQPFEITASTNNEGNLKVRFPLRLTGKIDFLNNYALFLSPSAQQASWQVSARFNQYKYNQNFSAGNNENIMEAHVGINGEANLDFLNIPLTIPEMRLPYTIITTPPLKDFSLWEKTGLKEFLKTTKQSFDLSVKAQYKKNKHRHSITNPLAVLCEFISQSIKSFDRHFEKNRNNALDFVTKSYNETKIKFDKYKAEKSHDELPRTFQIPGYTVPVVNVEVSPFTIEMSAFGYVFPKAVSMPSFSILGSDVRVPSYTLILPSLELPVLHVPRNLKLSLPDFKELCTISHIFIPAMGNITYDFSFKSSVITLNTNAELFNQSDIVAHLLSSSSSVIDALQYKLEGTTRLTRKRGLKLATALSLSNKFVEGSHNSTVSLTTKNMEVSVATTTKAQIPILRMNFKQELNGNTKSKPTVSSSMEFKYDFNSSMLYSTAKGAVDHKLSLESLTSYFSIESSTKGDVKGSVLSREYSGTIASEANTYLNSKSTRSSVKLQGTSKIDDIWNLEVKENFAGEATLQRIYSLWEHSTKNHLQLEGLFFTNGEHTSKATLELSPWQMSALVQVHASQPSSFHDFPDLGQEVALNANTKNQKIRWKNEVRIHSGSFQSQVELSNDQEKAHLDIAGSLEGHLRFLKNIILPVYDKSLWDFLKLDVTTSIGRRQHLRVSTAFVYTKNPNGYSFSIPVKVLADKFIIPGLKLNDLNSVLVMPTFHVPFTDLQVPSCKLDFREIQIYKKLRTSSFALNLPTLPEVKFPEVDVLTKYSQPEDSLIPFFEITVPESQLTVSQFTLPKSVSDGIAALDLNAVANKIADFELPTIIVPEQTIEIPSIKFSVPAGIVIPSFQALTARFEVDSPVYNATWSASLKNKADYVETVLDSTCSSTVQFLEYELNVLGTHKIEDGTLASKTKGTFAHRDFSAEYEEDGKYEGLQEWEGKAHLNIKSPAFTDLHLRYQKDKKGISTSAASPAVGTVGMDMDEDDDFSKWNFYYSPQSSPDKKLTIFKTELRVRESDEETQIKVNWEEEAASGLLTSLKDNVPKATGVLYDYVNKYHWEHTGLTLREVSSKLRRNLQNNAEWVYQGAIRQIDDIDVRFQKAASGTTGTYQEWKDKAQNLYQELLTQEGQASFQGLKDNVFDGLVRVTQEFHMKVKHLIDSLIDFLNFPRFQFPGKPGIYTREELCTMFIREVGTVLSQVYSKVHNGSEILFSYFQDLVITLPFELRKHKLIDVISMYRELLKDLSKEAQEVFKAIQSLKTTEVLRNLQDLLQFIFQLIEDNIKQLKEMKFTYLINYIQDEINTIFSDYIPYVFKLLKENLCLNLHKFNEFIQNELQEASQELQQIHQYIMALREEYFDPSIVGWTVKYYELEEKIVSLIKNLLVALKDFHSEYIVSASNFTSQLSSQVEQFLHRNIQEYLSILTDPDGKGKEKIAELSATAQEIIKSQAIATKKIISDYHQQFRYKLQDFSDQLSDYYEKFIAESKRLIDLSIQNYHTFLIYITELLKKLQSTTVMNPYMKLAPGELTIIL
# T2 sequence (P04114 28-4563 limits assumed): as above
# T1 sequence (P04114 28-4563 limits assumed): as above
binder,measurement,setting,value
B1,binding result,[1],no binding
B2,binding result,[2],binds
B3,binding result,[1],no binding
B4,binding result,[3],binds
same,binding result,[4],binds
same,binding result,[5],binds
B5,binding result,[6],no binding
